According to patent publication US20180016327A1 (Chugai, published 2018):

biological target: T1, human C5 (human, UniProt P01031 19-673; P01031 678-1676, Beta and alpha chains are disulfide-linked and the protein is glycosylated.); assay: Biacore, captured antibody, pH 7.4, 37 C;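 note: biacore binding response of anti-C5 antibody light chain variants captured on chip with human C5 injected, ACES running buffer containing 1.2 mM CaCl₂, parent light chain antibody set to 100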
T1 construct: Either in-house recombinant C5 or plasma derived C5 (CALBIOCHEM) was used; also called recombinant human C5; plasma derived human C5
Experimental: The light chain variants were tested for the binding affinity to C5 at pH 7.4 and at 37 degrees C. using Biacore T200 instrument (GE Healthcare) or Biacore 4000 instrument (GE Healthcare). […] Anti-C5 antibodies were captured on an immobilized molecule, and then human C5 was injected. The running buffer used was pH 7.4 ACES Buffer containing 1.2 mM Ca (20 mM ACES, 150 mM NaCl, 1.2 mM CaCl₂, 0.05% Tween 20). A value, % binding, was determined by normalizing binding response with that of antibody comprising parent light chain as 100.

| % binding (parent = 100) [%] | Binder |
| --- | --- |
| 27 | CFP0017 17L 32N (antibody, V domains shown) VH: QVQLVQSGAEVKKPGSSVKVSCKASGGTFSSYAISWVRQAPGQGLEWMGGIIPIFGTANYAQKFQGRVTITADESTSTAYMELSSLRSEDTAVYYCARGGWWGGALDYWGQGTLVTVSS VL: DIQMTQSPSSLSASVGDRVTITCRASQSIEDNLAWYQQKPGKAPKLLIYHASSLQSGVPSRFSGSGSGTDFTLTISSLQPEDFATYYCQQSDSYPLTFGQGTKVEIK |
| 5.4 | CFP0011 11L 96W (antibody, V domains shown) VH: QVQLVQSGAEVKKPGSSVKVSCKASGGTFSSYAISWVRQAPGQGLEWMGGIIPIFGTANYAQKFQGRVTITADESTSTAYMELSSLRSEDTAVYYCARDMSEFLGWSNYYSYPMDVWGQGTTVTVSS VL: DIQMTQSPSSLSASVGDRVTITCRASQSIEDDLAWYQQKPGKAPKLLIYHASSLQSGVPSRFSGSGSGTDFTLTISSLQPEDFATYYCQQSDNSPWTFGQGTKVEIK |
| 4 | CFP0011 11L 93S (antibody, V domains shown) VH: QVQLVQSGAEVKKPGSSVKVSCKASGGTFSSYAISWVRQAPGQGLEWMGGIIPIFGTANYAQKFQGRVTITADESTSTAYMELSSLRSEDTAVYYCARDMSEFLGWSNYYSYPMDVWGQGTTVTVSS VL: DIQMTQSPSSLSASVGDRVTITCRASQSIEDDLAWYQQKPGKAPKLLIYHASSLQSGVPSRFSGSGSGTDFTLTISSLQPEDFATYYCQQSDSSPYTFGQGTKVEIK |
| -0.7 | CFP0011 11L 94Y (antibody, V domains shown) VH: QVQLVQSGAEVKKPGSSVKVSCKASGGTFSSYAISWVRQAPGQGLEWMGGIIPIFGTANYAQKFQGRVTITADESTSTAYMELSSLRSEDTAVYYCARDMSEFLGWSNYYSYPMDVWGQGTTVTVSS VL: DIQMTQSPSSLSASVGDRVTITCRASQSIEDDLAWYQQKPGKAPKLLIYHASSLQSGVPSRFSGSGSGTDFTLTISSLQPEDFATYYCQQSDNYPYTFGQGTKVEIK |
| 3.2 | CFP0011 11L 96L (antibody, V domains shown) VH: QVQLVQSGAEVKKPGSSVKVSCKASGGTFSSYAISWVRQAPGQGLEWMGGIIPIFGTANYAQKFQGRVTITADESTSTAYMELSSLRSEDTAVYYCARDMSEFLGWSNYYSYPMDVWGQGTTVTVSS VL: DIQMTQSPSSLSASVGDRVTITCRASQSIEDDLAWYQQKPGKAPKLLIYHASSLQSGVPSRFSGSGSGTDFTLTISSLQPEDFATYYCQQSDNSPLTFGQGTKVEIK |
| 5.1 | CFP0011 11L 96H (antibody, V domains shown) VH: QVQLVQSGAEVKKPGSSVKVSCKASGGTFSSYAISWVRQAPGQGLEWMGGIIPIFGTANYAQKFQGRVTITADESTSTAYMELSSLRSEDTAVYYCARDMSEFLGWSNYYSYPMDVWGQGTTVTVSS VL: DIQMTQSPSSLSASVGDRVTITCRASQSIEDDLAWYQQKPGKAPKLLIYHASSLQSGVPSRFSGSGSGTDFTLTISSLQPEDFATYYCQQSDNSPHTFGQGTKVEIK |
| 207 | CFP0011 11L 94T (antibody, V domains shown) VH: QVQLVQSGAEVKKPGSSVKVSCKASGGTFSSYAISWVRQAPGQGLEWMGGIIPIFGTANYAQKFQGRVTITADESTSTAYMELSSLRSEDTAVYYCARDMSEFLGWSNYYSYPMDVWGQGTTVTVSS VL: DIQMTQSPSSLSASVGDRVTITCRASQSIEDDLAWYQQKPGKAPKLLIYHASSLQSGVPSRFSGSGSGTDFTLTISSLQPEDFATYYCQQSDNTPYTFGQGTKVEIK |
| 0.8 | CFP0011 11L 96I (antibody, V domains shown) VH: QVQLVQSGAEVKKPGSSVKVSCKASGGTFSSYAISWVRQAPGQGLEWMGGIIPIFGTANYAQKFQGRVTITADESTSTAYMELSSLRSEDTAVYYCARDMSEFLGWSNYYSYPMDVWGQGTTVTVSS VL: DIQMTQSPSSLSASVGDRVTITCRASQSIEDDLAWYQQKPGKAPKLLIYHASSLQSGVPSRFSGSGSGTDFTLTISSLQPEDFATYYCQQSDNSPITFGQGTKVEIK |
| -1.6 | CFP0011 11L 96P (antibody, V domains shown) VH: QVQLVQSGAEVKKPGSSVKVSCKASGGTFSSYAISWVRQAPGQGLEWMGGIIPIFGTANYAQKFQGRVTITADESTSTAYMELSSLRSEDTAVYYCARDMSEFLGWSNYYSYPMDVWGQGTTVTVSS VL: DIQMTQSPSSLSASVGDRVTITCRASQSIEDDLAWYQQKPGKAPKLLIYHASSLQSGVPSRFSGSGSGTDFTLTISSLQPEDFATYYCQQSDNSPPTFGQGTKVEIK |
| 82.8 | CFP0011 11L 96F (antibody, V domains shown) VH: QVQLVQSGAEVKKPGSSVKVSCKASGGTFSSYAISWVRQAPGQGLEWMGGIIPIFGTANYAQKFQGRVTITADESTSTAYMELSSLRSEDTAVYYCARDMSEFLGWSNYYSYPMDVWGQGTTVTVSS VL: DIQMTQSPSSLSASVGDRVTITCRASQSIEDDLAWYQQKPGKAPKLLIYHASSLQSGVPSRFSGSGSGTDFTLTISSLQPEDFATYYCQQSDNSPFTFGQGTKVEIK |

The next lines start with the binder.

| Binder | % binding (parent = 100) [%] |
| --- | --- |
| CFP0011 11L 50E (antibody, V domains shown) VH: QVQLVQSGAEVKKPGSSVKVSCKASGGTFSSYAISWVRQAPGQGLEWMGGIIPIFGTANYAQKFQGRVTITADESTSTAYMELSSLRSEDTAVYYCARDMSEFLGWSNYYSYPMDVWGQGTTVTVSS VL: DIQMTQSPSSLSASVGDRVTITCRASQSIEDDLAWYQQKPGKAPKLLIYEASSLQSGVPSRFSGSGSGTDFTLTISSLQPEDFATYYCQQSDNSPYTFGQGTKVEIK | 75.6 |
| CFP0011 11L 93R (antibody, V domains shown) VH: QVQLVQSGAEVKKPGSSVKVSCKASGGTFSSYAISWVRQAPGQGLEWMGGIIPIFGTANYAQKFQGRVTITADESTSTAYMELSSLRSEDTAVYYCARDMSEFLGWSNYYSYPMDVWGQGTTVTVSS VL: DIQMTQSPSSLSASVGDRVTITCRASQSIEDDLAWYQQKPGKAPKLLIYHASSLQSGVPSRFSGSGSGTDFTLTISSLQPEDFATYYCQQSDRSPYTFGQGTKVEIK | 11.7 |
| CFP0011 11L 93G (antibody, V domains shown) VH: QVQLVQSGAEVKKPGSSVKVSCKASGGTFSSYAISWVRQAPGQGLEWMGGIIPIFGTANYAQKFQGRVTITADESTSTAYMELSSLRSEDTAVYYCARDMSEFLGWSNYYSYPMDVWGQGTTVTVSS VL: DIQMTQSPSSLSASVGDRVTITCRASQSIEDDLAWYQQKPGKAPKLLIYHASSLQSGVPSRFSGSGSGTDFTLTISSLQPEDFATYYCQQSDGSPYTFGQGTKVEIK | 3.6 |
| CFP0011 11L 93D (antibody, V domains shown) VH: QVQLVQSGAEVKKPGSSVKVSCKASGGTFSSYAISWVRQAPGQGLEWMGGIIPIFGTANYAQKFQGRVTITADESTSTAYMELSSLRSEDTAVYYCARDMSEFLGWSNYYSYPMDVWGQGTTVTVSS VL: DIQMTQSPSSLSASVGDRVTITCRASQSIEDDLAWYQQKPGKAPKLLIYHASSLQSGVPSRFSGSGSGTDFTLTISSLQPEDFATYYCQQSDDSPYTFGQGTKVEIK | 5.4 |
| CFP0011 11L 92S (antibody, V domains shown) VH: QVQLVQSGAEVKKPGSSVKVSCKASGGTFSSYAISWVRQAPGQGLEWMGGIIPIFGTANYAQKFQGRVTITADESTSTAYMELSSLRSEDTAVYYCARDMSEFLGWSNYYSYPMDVWGQGTTVTVSS VL: DIQMTQSPSSLSASVGDRVTITCRASQSIEDDLAWYQQKPGKAPKLLIYHASSLQSGVPSRFSGSGSGTDFTLTISSLQPEDFATYYCQQSSNSPYTFGQGTKVEIK | 1.1 |
| CFP0011 11L 53H (antibody, V domains shown) VH: QVQLVQSGAEVKKPGSSVKVSCKASGGTFSSYAISWVRQAPGQGLEWMGGIIPIFGTANYAQKFQGRVTITADESTSTAYMELSSLRSEDTAVYYCARDMSEFLGWSNYYSYPMDVWGQGTTVTVSS VL: DIQMTQSPSSLSASVGDRVTITCRASQSIEDDLAWYQQKPGKAPKLLIYHASHLQSGVPSRFSGSGSGTDFTLTISSLQPEDFATYYCQQSDNSPYTFGQGTKVEIK | 115 |
| CFP0011 11L 91R (antibody, V domains shown) VH: QVQLVQSGAEVKKPGSSVKVSCKASGGTFSSYAISWVRQAPGQGLEWMGGIIPIFGTANYAQKFQGRVTITADESTSTAYMELSSLRSEDTAVYYCARDMSEFLGWSNYYSYPMDVWGQGTTVTVSS VL: DIQMTQSPSSLSASVGDRVTITCRASQSIEDDLAWYQQKPGKAPKLLIYHASSLQSGVPSRFSGSGSGTDFTLTISSLQPEDFATYYCQQRDNSPYTFGQGTKVEIK | -2.6 |
| CFP0011 11L 91Y (antibody, V domains shown) VH: QVQLVQSGAEVKKPGSSVKVSCKASGGTFSSYAISWVRQAPGQGLEWMGGIIPIFGTANYAQKFQGRVTITADESTSTAYMELSSLRSEDTAVYYCARDMSEFLGWSNYYSYPMDVWGQGTTVTVSS VL: DIQMTQSPSSLSASVGDRVTITCRASQSIEDDLAWYQQKPGKAPKLLIYHASSLQSGVPSRFSGSGSGTDFTLTISSLQPEDFATYYCQQYDNSPYTFGQGTKVEIK | 56 |
| CFP0011 11L 53N (antibody, V domains shown) VH: QVQLVQSGAEVKKPGSSVKVSCKASGGTFSSYAISWVRQAPGQGLEWMGGIIPIFGTANYAQKFQGRVTITADESTSTAYMELSSLRSEDTAVYYCARDMSEFLGWSNYYSYPMDVWGQGTTVTVSS VL: DIQMTQSPSSLSASVGDRVTITCRASQSIEDDLAWYQQKPGKAPKLLIYHASNLQSGVPSRFSGSGSGTDFTLTISSLQPEDFATYYCQQSDNSPYTFGQGTKVEIK | 105 |
| CFP0011 11L 91H (antibody, V domains shown) VH: QVQLVQSGAEVKKPGSSVKVSCKASGGTFSSYAISWVRQAPGQGLEWMGGIIPIFGTANYAQKFQGRVTITADESTSTAYMELSSLRSEDTAVYYCARDMSEFLGWSNYYSYPMDVWGQGTTVTVSS VL: DIQMTQSPSSLSASVGDRVTITCRASQSIEDDLAWYQQKPGKAPKLLIYHASSLQSGVPSRFSGSGSGTDFTLTISSLQPEDFATYYCQQHDNSPYTFGQGTKVEIK | 320 |
| CFP0011 11L 53T (antibody, V domains shown) VH: QVQLVQSGAEVKKPGSSVKVSCKASGGTFSSYAISWVRQAPGQGLEWMGGIIPIFGTANYAQKFQGRVTITADESTSTAYMELSSLRSEDTAVYYCARDMSEFLGWSNYYSYPMDVWGQGTTVTVSS VL: DIQMTQSPSSLSASVGDRVTITCRASQSIEDDLAWYQQKPGKAPKLLIYHASTLQSGVPSRFSGSGSGTDFTLTISSLQPEDFATYYCQQSDNSPYTFGQGTKVEIK | 98.9 |
